Measured values taken from the supplement of paper PMC12764529.

Assay: folding stability dG unfold (combined trypsin and chymotrypsin); higher = more stable
Description: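 Folding stability of de novo designed mini-proteins (<80 aa, no Cys; designed by TrROS, TrMRF, ProteinMPNN and the joint model) was measured by cDNA display proteolysis with trypsin and chymotrypsin. Each protease was used at 11 concentrations in a threefold dilution series plus a no-protease condition. K50 was inferred by Bayesian fitting of sequencing counts, and dG unfold was derived against a sequence-predicted unfolded-state K50 (Tsuboyama et al. method). Sequences shown include variable-length N-terminal GS-type padding (SAGGSAGG...) inside a display construct carrying a PA tag. Rows were kept only if the AF2 dimer inter-PAE was >15, to exclude likely homo-oligomers.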

Sequence	folding stability dG unfold [kcal/mol]
DFLELPGGWKVTEILEKKRLSDGTVEIKAVVKDPNNPVETEIDVKIPIPEVPEVPVEVRLIPGTGELIGILS [r1_411_JUSTAS]	< -1
DMDFKVEDIKVDPDDGKVKIEMPIPNPNMPIAIFAPNGKIKDVKWEHYKEDGRMKIEIPVKSPDEVRAFIFS [r1_138_TrROS]	< -1
DNMDMEPEGYDPDNGHYEWEMRTDNQWTEMTMRPKPRIPIPLEELKNIADYLADQNPDNKEKAEKIAEKLAS [r1_330_TrROS]	< -1
KTYYLKAENAPFEEIVEKAREALEADPEEGAEIVIEVPGNPELLEKLDFDEIIPYDIPERPLYIVRAKAPPS [r1_467_TrMRF]	< -1
MRRTLETDEIRRLEIELRPAPGRTAVLDAVVELRDGTPVPLPFPLRLESGRLDPATVERAEREAVEEALARS [r1_124_TrMRF]	< -1
MTIEIEVTAEDLKEGKPLTAEELAKKLAEELGLEEVEVKVEVKEDGTVKITIEVKPKPPPEVVLPEELKKKS [r1_168_TrROS_Hall]	< -1
MTRTIVAEDMSIEEVKERIEALGAAEPEKGTTVVVEYPGNPEELKKLPIDKIEPREEPERESLVATKTFPAS [r1_467_JUSTAS]	< -1
MVISPALLREARRAGISDEFLKKAGDVIIPSEVANPEEVKELLAHPGVKKVYPVPPEDPEKLAAAKVVLPGS [r1_248_TrMRF]	< -1
NWKILEEEPNPDNGKRVIVIEHEPDPENGQMNMPIELFDPKKGKPRRIPVRMDSPETMIDEIKDQLPPDLIS [r1_156_TrROS]	< -1
SAGAAKEVFHETFPHPAGGPVELARNPGLDWVVLYNAGTGEPTVVPVAADETLVFPAAPGGASTFAVTSAGG [r19_118_TrMRF]	< -1
SAGAPVVEKKRTIPSPLGAPAYLVFVPEEDRIVFTRPGSGEPVELSVPPDSEVEVPAPPSGSLTYRWESAGG [r19_118_JUSTAS]	< -1
SAGASLAPGESAAFTVTTTTTTTESLPLPDGTTVTTTSTTTTTTAHTVTFPAVPVVTMPPDATDPAVRASAG [r5_770_JUSTAS]	< -1
SAGFEKIAEKLGVKPENLEIKDIEDKPVTVPDPKTGKPKERLVPVLYLEFYDPEVGKKVDAEIPLAEVASAG [r5_517_TrMRF]	< -1
SAGGATTPVTVPTTSEEEVEAIIEELNKEGLSDLIPKGGKPIPPPDSLRLVPLVITTTPGSGKTTVTLSAGG [r13_174_JUSTAS]	< -1
SAGGDNVKLRFYDPNGRLKIDEINPENGNIKVEYEGPGKPRERTVDADPDEAIDEIADNFPFPLEIEKSAGG [r13_141_TrROS]	< -1
SAGGFKPRTINIPAKPGALRNILNDLREKSPNYMVHVTNPDKGKPRHWPLDDLKDMPGPFEFRVMKMPKSAG [r5_437_TrROS]	< -1
SAGGGMDTPLYRTLPPPPVVEKREVWLSGPSKEEAEKKAKEVEEEFKKEGLEVEVKIIPAEEAEKLSSAGGS [r8_210_JUSTAS]	< -1
SAGGGMKKYTESTVPLPPGRPDVVERLRAEYPNLEVEREGPADTGTLPTTVKVPAPDGSPLASIELGSAGGS [r8_267_JUSTAS]	< -1
SAGGGMMVNLKFESPTSSSTVPLPVVEIRRLPSPEYEEVVVPDGTRYLFNPKTNTLLEEKEVPPLEELSAGG [r13_636_JUSTAS]	< -1

Sequence	folding stability dG unfold [kcal/mol]
SAGGGSMVETRTLEVEEVEDGTVTLSRTLYPGGLVRLTRTRVPPADPSVAEEVETELVYVSPEEAAASAGGS [r16_161_JUSTAS]	< -1
SAGGGSSMPRRRALPDGTALETTLGDSVATVRATRYVGDRPLETAERVLPDVPPDVDAEVDFDLPPGSAGGS [r8_155_JUSTAS]	< -1
SAGGIPLKEIKEMIENDPGETWTAQIYRMPPGPNGQMQQQTIEFPIKDPEDALDNLPPGYMVHVEPRSAGGS [r16_116_TrROS]	< -1
SAGGIREIADELGMPPGDKVTIDIERPRDGKPQTQEIEFPPDNVEDILDQMGIPPDQMKITKLKVDKDSAGG [r13_681_TrROS]	< -1
SAGGITLEELRGMPPEQLADWLVQEAQEQNKKEGNPNRPVTVEFEYGDQPLKIEITPNGKIEKIELDSAGGS [r16_431_TrROS]	< -1
SAGGKAELAANPGVVRVEVELVDPSGPVALPTREYLYPEGDPAALRAAIEAEIPADLAVARVTFTRLGSAGG [r13_849_JUSTAS]	< -1
SAGGKITITLPNGAKIEIEEEEVEVDGKTYLVFKAKITNKDGSKYLITVVIDKKTKEIVSISIEKLPSAGGS [r8_492_TrROS_Hall]	> 6
SAGGKTVEIPIPGPLTIETAKDLASKLAEEGHEDVPIKITMWHWKREPNGKPERHRHTHTYKLKVPKSAGGS [r16_44_TrROS]	< -1
SAGGMDEEELRELLAEDDATVLTEDPDGLLVAFTLPDGTARVFPVPSRERLDRLIAEVPDATVTTLPASAGG [r13_600_JUSTAS]	< -1
SAGGMITVLEEEVEERGDELVVTRLVRVSSEEDVEALANDGVPDTAREVRRLPDGTLLAELTETVPPPSAGG [r13_506_JUSTAS]	< -1
SAGGMKKRVEIPEELKKAYPDLVVEDQEVPEDSVDVTVRLPTADLKVPQVVLSPDGNPLRSFTLTSSPSAGG [r13_129_JUSTAS]	< -1
SAGGMKTIKRKSKFIKPGKGLSIDRTTELLPGGEVLEPLTFKNPKNGEKIKSFTIRIDPNGNETVENSAGGS [r16_239_JUSTAS]	< -1
SAGGMRVDYKSGKVIPEKTITIERTFSPEVVKTEEDAIELAKQEAEEAGLKDIDLKVELEGDKITVVGSAGG [r13_130_JUSTAS]	< -1
SAGGMVETTETVVEPGRIRVERRVTLPDGTEVEEVEEVPPAAGGVWEVRSRVRRGEGEEEVARREVAPSAGG [r13_728_JUSTAS]	< -1
SAGGMVTIEITDIPEDDPEKAIETAKELVEKIKKEGPPLKVKIKGNTPVFEEVAAELKKLGVETDLESAGGS [r16_450_JUSTAS]	< -1
SAGGNAEEIRDITRDIAEKHGGEVKDVEVEPEPNGRKELTFRMKEDPNTRIKITVDNNEIKITSIQPSAGGS [r8_432_TrROS]	< -1
SAGGPAEFPEGPGVVVGYTYPPDGKPAKWAIPFPDATPEEARERLAKFAEALPIPGAKVVIDDIKPGPSAGG [r13_29_TrMRF]	< -1
SAGGPAEVKIPIMKMEPPKPERVYDPDDGQERWKMEHQMRMEMIPITIRADDNPEEANDIANDFGITSAGGS [r16_467_TrROS]	< -1
SAGGPDDYPIRIAVYPPDGEIKEEITIPNNWTIKYFPNDDPRIMIQDPGNGETVPVKTPEDIKDLIQSAGGS [r8_232_TrROS]	< -1

Sequence	folding stability dG unfold [kcal/mol]
SAGGPNKKIKIVMDPDDPNMPMSEIANFMQKEGFEPVEMVPADNLPPEKAREEAEEEGKPVIEIPFNSAGGS [r16_94_TrROS]	< -1
SAGGPVYFRIKVEQRRPDPENGEPERREQTVSIPFEYDPDNGMPADEFAEELAKTLPPGIREVEIEPFSAGG [r13_335_TrROS]	< -1
SAGGSAFKVPPGNIKEEEDFKFKFPDGNNMKIKIIRYPGKKRLMMENPGNNEPQTMPVEDLKEMLQSAGGSA [r15_329_TrROS]	< -1
SAGGSAGGEKTASFKVKGNLVAKGVTTFYSPTSDEYTIETEIEKVPPGPKPEITPEEIAKNYLLSAGGSAGG [r6_148_JUSTAS]	< -1
SAGGSAGGGKVPKPVPGPLTILFDVAEDELPPEEIRKLFPDAKVYRFPKGLRVTVPVNGKLVPGSAGGSAGG [r6_738_TrMRF]	< -1
SAGGSAGGGMITVPLSEEISMANLPEEERAAGEELGPGSVIRKLLEIKKYPVKPFRFIEKDKILSAGGSAGG [r6_547_JUSTAS]	< -1
SAGGSAGGMELVSEERLPDGSRRFTVRVDPDKSLSLTLPDAGEPVAATVTETFPEEGLVTVELASAGGSAGG [r6_177_JUSTAS]	< -1
SAGGSAGGPPMEPIPFRVRVDEVEHDPPNGNVVITIKDGDKNPHTINIPPEMAKNMPIEPGDELSAGGSAGG [r6_915_TrROS]	< -1
SAGGSAGGQKIKIDDVQKNPGNGNYYVRIRPPGKPYEYQFPPGDSADDIADELELNGIDDIEVYSAGGSAGG [r6_83_TrROS]	< -1
SAGGSAGGRIRDPDGNPFKIKKVEPQPSPNGQPMIKFRYPDNGKEHTIPRDNLPPWLPDNAKPVSAGGSAGG [r6_371_TrROS]	< -1
SAGGSAGGRVITLKEEELKKLIEEGKVDSVDVEKLPDGTVKAKPIIKEKEELSPKNKEKIFELKSAGGSAGG [r6_279_JUSTAS]	< -1
SAGGSAGGSAAPIPPDQSATSLTLLPDGTVRKTTTTYPPPEFVTTTTTTIPISPEEGAAAGSAGGSAGGSAG [r3_437_JUSTAS]	< -1
SAGGSAGGSAEPDPSSPEPYEVLEVVPRTIVSRVEQPGNPQLLRQTVDVVIIKNPSNGLLDSAGGSAGGSAG [r3_391_JUSTAS]	< -1
SAGGSAGGSAGAPDEPIQITMRLKYPDGQKREHNTPFPPGKDIEIKNMPPGAKIENIEITSAGGSAGGSAGG [r11_181_TrROS]	< -1
SAGGSAGGSAGDLGLEDDTFILKATYPDGTPATIPLKKSEISKISKDNIKSIEFYPKSKLSAGGSAGGSAGG [r11_779_JUSTAS]	< -1
SAGGSAGGSAGDNGKPEVKPVRIPIFIPGPKEQAKRIANYLYGFGMPIDVEVFDPDGKPISAGGSAGGSAGG [r11_703_TrROS]	< -1
SAGGSAGGSAGEITIRMPMPDPDGGRRRIQFTIEKIKLPPGQKIKIVSVGPNGSFTIKPKSAGGSAGGSAGG [r11_733_TrROS]	< -1
SAGGSAGGSAGEPVKIPITIKMRDNGKPREQPFKVEVEPNPDGNTQHKLNMPEGNITEIESAGGSAGGSAGG [r11_816_TrROS]	< -1
SAGGSAGGSAGGEIKVRIDEYDPPSGFFRIEPPDGRTRQIPVPPGMNPEDLKGDTVTLKPSAGGSAGGSAGG [r7_296_TrROS]	< -1
